According to publication PMC10787639 (Frontiers in Molecular Biosciences, 2023):

Columns and labels:
[1] = molecular target: Chaetomium thermophilum PCNA (proliferating cell nuclear antigen) (Chaetomium thermophilum); assay: crystal structure; Ct PCNA (14 mg/mL) mixed with Ct PolD3 PIP peptide (8 mg/mL in dH2O); crystals in 0.1 M phosphate/citrate pH 4.2, 40% PEG 300; space group P1, one PCNA trimer in the asymmetric unit; 2.45 A; the peptide occupies a single PIP binding site, the others occluded by crystal packing
[2] = format: physicochemical; details: lyophilised peptide; resuspended in DMSO at 8 mg/mL (4.8 mM) instead
Source text: A 15mer Ct PolD3 PIP peptide spanning residues 437–451 (sequence: ^437GKGGQGSIMSWFAKK^451) and a 15mer Ct Fen1 peptide spanning residues 339–353 (^339GAQQARIEGFFKVIP^353) were commercially synthesised (GenScript, Piscataway, New Jersey, United States) and obtained in lyophilised form at final purities of 99.4% and 99.1%, respectively.

PolD4 (Homo sapiens) = PolD4 (Homo sapiens) (UniProt Q9HCU8); assay: ITC; details: cited from earlier work
Sequence of UniProt Q9HCU8 (Q9HCU8 whole entry): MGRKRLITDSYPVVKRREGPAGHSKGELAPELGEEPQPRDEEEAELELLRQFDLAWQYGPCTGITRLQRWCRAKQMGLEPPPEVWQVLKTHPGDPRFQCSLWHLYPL

PolD3/p66 (Homo sapiens) = PolD3/p66 (Homo sapiens) (UniProt Q15054); assay: ITC; details: cited from earlier work
Sequence of UniProt Q15054 (Q15054 2-466): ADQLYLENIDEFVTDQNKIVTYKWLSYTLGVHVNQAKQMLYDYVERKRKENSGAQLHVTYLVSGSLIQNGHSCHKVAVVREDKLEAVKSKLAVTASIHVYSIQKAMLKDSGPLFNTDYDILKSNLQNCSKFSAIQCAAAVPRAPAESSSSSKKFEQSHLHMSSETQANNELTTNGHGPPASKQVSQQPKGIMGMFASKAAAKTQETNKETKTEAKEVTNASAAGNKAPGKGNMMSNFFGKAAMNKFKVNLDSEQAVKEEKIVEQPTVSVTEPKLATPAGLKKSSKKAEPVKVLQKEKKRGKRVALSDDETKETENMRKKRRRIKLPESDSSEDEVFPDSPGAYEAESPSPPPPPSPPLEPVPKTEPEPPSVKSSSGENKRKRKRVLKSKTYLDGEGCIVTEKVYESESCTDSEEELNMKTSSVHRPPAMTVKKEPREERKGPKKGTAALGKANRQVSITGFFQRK

[3] = molecular target: Chaetomium thermophilum PCNA (proliferating cell nuclear antigen) (Chaetomium thermophilum); assay: ITC; 420 uM Ct PolD3 peptide injected into 300 uL of 32.7 uM Ct PCNA; 25°C; 50 mM Tris-HCl, 150 mM NaCl, pH 8.0; duplicate; single site model (1 peptide: 1 PCNA protomer)

Sequence of PCNA (P12004 whole entry): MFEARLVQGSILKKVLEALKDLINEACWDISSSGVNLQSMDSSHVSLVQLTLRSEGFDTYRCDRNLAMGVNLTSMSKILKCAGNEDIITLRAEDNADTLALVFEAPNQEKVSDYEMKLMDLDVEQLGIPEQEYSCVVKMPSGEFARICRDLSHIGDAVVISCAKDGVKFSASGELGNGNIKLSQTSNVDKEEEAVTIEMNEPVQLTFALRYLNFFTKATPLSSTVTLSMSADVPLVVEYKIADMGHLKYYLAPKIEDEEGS

Chaetomium thermophilum PCNA (proliferating cell nuclear antigen) (natural protein)
stoichiometry N [1]: 3

GAQQARIEGFFKVIP [Ct Fen1 PIP peptide, 15mer Ct Fen1 peptide spanning residues 339–353, commercially synthesised (GenScript), purity 99.1%]
solubility in aqueous solution [2]: insoluble in aqueous solution

PCNA (from UniProt P12004)
Kd (PolD4 (Homo sapiens)): 38 µM
Kd (PolD3/p66 (Homo sapiens)): 16 µM

GKGGQGSIMSWFAKK [Ct PolD3 PIP peptide (15mer, residues 437-451)]
Kd [3]: 43.2 µM
stoichiometry N (PIP peptide per PCNA protomer) [3]: 1
